Source: doi:10.1101/2021.01.13.426575 (bioRxiv, 2021)
Changes are numbered by the printed parent chain. Names and notes keep the numbering of the source. Where two headings read alike, the source gives them in different places.

B1: DPP9, short isoform (DPP9S), co-expressed with CARD8 for cryo-EM (enzyme, human)
chain: MATTGTPTADRGDAAATDDPAARFQVQKHSWDGLRSIIHGSRKYSGLIVNKAPHDFQFVQKTDESGPHSHRLYYLGMPYGSRENSLLYSEIPKKVRKEALLLLSWKQMLDHFQATPHHGVYSREEELLRERKRLGVFGITSYDFHSESGLFLFQASNSLFHCRDGGKNGFMVSPMKPLEIKTQCSGPRMDPKICPADPAFFSFINNSDLWVANIETGEERRLTFCHQGLSNVLDDPKSAGVATFVIQEEFDRFTGYWWCPTASWEGSEGLKTLRILYEEVDESEVEVIHVPSPALEERKTDSYRYPRTGSKNPKIALKLAEFQTDSQGKIVSTQEKELVQPFSSLFPKVEYIARAGWTRDGKYAWAMFLDRPQQWLQLVLLPPALFIPSTENEEQRLASARAVPRNVQPYVVYEEVTNVWINVHDIFYPFPQSEGEDELCFLRANECKTGFCHLYKVTAVLKSQGYDWSEPFSPGEDEFKCPIKEEIALTSGEWEVLARHGSKIWVNEETKLVYFQGTKDTPLEHHLYVVSYEAAGEIVRLTTPGFSHSCSMSQNFDMFVSHYSSVSTPPCVHVYKLSGPDDDPLHKQPRFWASMMEAASCPPDYVPPEIFHFHTRSDVRLYGMIYKPHALQPGKKHPTVLFVYGGPQVQLVNNSFKGIKYLRLNTLASLGYAVVVIDGRGSCQRGLRFEGALKNQMGQVEIEDQVEGLQFVAEKYGFIDLSRVAIHGWSYGGFLSLMGLIHKPQVFKVAIAGAPVTVWMAYDTGYTERYMDVPENNQHGYEAGSVALHVEKLPNEPNRLLILHGFLDENVHFFHTNFLVSQLIRAGKPYQLQIYPNERHSIRCPESGEHYEVTLLHFLQEYL
B2: Full-length CARD8 (T60 isoform), wild type, co-expressed with DPP9S for cryo-EM (natural protein, human, UniProt Q9Y2G2-5 1-537, looked up)
chain: MEKKECPEKSSSSEEELPRRDSGSSRNIDASKLIRLQGSRKLLVDNSIRELQYTKTGIFFQAEACVTNDTVYRELPCVSETLCDISHFFQEDDETEAEPLLFRAVPECQLSGGDIPSVSEEQESSEGQDSGDICSEENQIVSSYASKVCFEIEEDYKNRQFLGPEGNVDVELIDKSTNRYSVWFPTAGWYLWSATGLGFLVRDEVTVTIAFGSWSQHLALDLQHHEQWLVGGPLFDVTAEPEEAVAEIHLPHFISLQAGEVDVSWFLVAHFKNEGMVLEHPARVEPFYAVLESPSFSLMGILLRIASGTRLSIPITSNTLIYYHPHPEDIKFHLYLVPSDALLTKAIDDEEDRFHGVRLQTSPPMEPLNFGSSYIVSNSANLKVMPKELKLSYRSPGEIQHFSKFYAGQMKEPIQLEITEKRHGTLVWDTEVKPVDLQLVAASAPPPFSGAAFVKENHRQLQARMGDLKGVLDDLQDNEVLTENEKELVEQEKTRQSKNEALLSMVEKKGDLALDVLFRSISERDPYLVSYLRQQNL
B3: Full-length CARD8 S297A (autoproteolysis-deficient), co-expressed with DPP9S for cryo-EM (natural protein, human, UniProt Q9Y2G2-5 1-537, looked up)
chain: B2 chain with S297A
B4: CARD8-CT (N-terminally degraded CARD8, UPA-CARD) in the purified CARD8-DPP9 complex (domain or fragment, human, UniProt Q9Y2G2-5 297-537, looked up)
chain: SLMGILLRIASGTRLSIPITSNTLIYYHPHPEDIKFHLYLVPSDALLTKAIDDEEDRFHGVRLQTSPPMEPLNFGSSYIVSNSANLKVMPKELKLSYRSPGEIQHFSKFYAGQMKEPIQLEITEKRHGTLVWDTEVKPVDLQLVAASAPPPFSGAAFVKENHRQLQARMGDLKGVLDDLQDNEVLTENEKELVEQEKTRQSKNEALLSMVEKKGDLALDVLFRSISERDPYLVSYLRQQNL

Columns and labels:
Assay in all cases: cryo-EM structure
[1] = biological target: B2
[2] = biological target: B1
[3] = biological target: B1; remark: listed apart in the source

Binder: B1
- stoichiometry N [1]: 1

Binder: B2
- binding result [2]: binds

Binder: B3
- binding result [3]: binds

Binder: B4
- binding result [1]: binds
